Reference: the supplement of paper PMC9112550, “Optimization of the antimicrobial peptide Bac7 by deep mutational scanning” (BMC Biology, 2022)

tested on: Escherichia coli TOP10; assay: shrunken log2 fold change of peptide-encoding DNA abundance (4.5 h post-induction vs induction); higher = less antimicrobial activity (less host growth inhibition); details: time post-induction: 4.5 h; library: site-saturation at positions 5, 18, 19, 20
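Also: peptides expressed intracellularly from a pBAD plasmid library in pooled LB shake-flask culture, induced with 0.3% L-arabinose, DNA abundance read by NGS, three biological replicates, DESeq2 with apeglm shrinkage.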

Row | Sequence | shrunken log2 fold change
1 | RRIRWRPPRLPRPRPRPARGPRP | 0.687
2 | RRIRKRPPRLPRPRPRPWDDPRP | 0.0248
3 | RRIRWRPPRLPRPRPRPANMPRP | -0.0899
4 | RRIRDRPPRLPRPRPRPNMQPRP | -0.339
5 | RRIRYRPPRLPRPRPRPVMWPRP | 3.51
6 | RRIRSRPPRLPRPRPRPACHPRP | -0.0735
7 | RRIRIRPPRLPRPRPRPSNPPRP | -0.74
8 | RRIRLRPPRLPRPRPRPQNMPRP | -0.232
9 | RRIRHRPPRLPRPRPRPRNMPRP | -0.65
10 | RRIRVRPPRLPRPRPRPVLKPRP | -0.193
11 | RRIRCRPPRLPRPRPRPLPSPRP | 0.214
12 | RRIRKRPPRLPRPRPRPTPMPRP | 0.555
13 | RRIRFRPPRLPRPRPRPHYDPRP | -0.397
14 | RRIRERPPRLPRPRPRPGTLPRP | -0.251
15 | RRIRHRPPRLPRPRPRPMFVPRP | 0.0711
16 | RRIRDRPPRLPRPRPRPFWSPRP | 0.000201
17 | RRIRSRPPRLPRPRPRPHTYPRP | -0.265
18 | RRIRPRPPRLPRPRPRPYVDPRP | -0.117
19 | RRIRPRPPRLPRPRPRPCRTPRP | -0.194
20 | RRIRNRPPRLPRPRPRPWTCPRP | 0.0493
21 | RRIRDRPPRLPRPRPRPNTVPRP | -0.364
22 | RRIRPRPPRLPRPRPRPDEIPRP | -0.144
23 | RRIRPRPPRLPRPRPRPQAAPRP | 0.116
24 | RRIRFRPPRLPRPRPRPTTNPRP | -0.2
25 | RRIRRRPPRLPRPRPRPKRMPRP | 0.514

Row | Sequence | shrunken log2 fold change
26 | RRIRVRPPRLPRPRPRPHHRPRP | 3.34
27 | RRIRTRPPRLPRPRPRPSCEPRP | -0.252
28 | RRIRDRPPRLPRPRPRPWMTPRP | -0.29
29 | RRIRNRPPRLPRPRPRPIANPRP | 0.000407
30 | RRIRGRPPRLPRPRPRPVQCPRP | 0.102
31 | RRIRLRPPRLPRPRPRPHMGPRP | -0.386
32 | RRIRPRPPRLPRPRPRPDIGPRP | -0.0448
33 | RRIRARPPRLPRPRPRPWARPRP | 0.0181
34 | RRIRVRPPRLPRPRPRPENKPRP | -0.134
35 | RRIRERPPRLPRPRPRPGHSPRP | -0.134
36 | RRIRVRPPRLPRPRPRPWEEPRP | -0.317
37 | RRIRHRPPRLPRPRPRPIDPPRP | 0.0865
38 | RRIRCRPPRLPRPRPRPRNPPRP | 0.176
39 | RRIRQRPPRLPRPRPRPRNCPRP | 5
40 | RRIRMRPPRLPRPRPRPTAWPRP | 1.4
41 | RRIRLRPPRLPRPRPRPSTEPRP | 0.0451
42 | RRIRKRPPRLPRPRPRPTHVPRP | -0.305
43 | RRIRPRPPRLPRPRPRPPFMPRP | 0.315
44 | RRIRNRPPRLPRPRPRPLANPRP | 0.142
45 | RRIRARPPRLPRPRPRPIRDPRP | 0.114
46 | RRIRPRPPRLPRPRPRPVTEPRP | -0.027
47 | RRIRWRPPRLPRPRPRPVHQPRP | 0.194
48 | RRIRIRPPRLPRPRPRPDEVPRP | -0.0316
49 | RRIRPRPPRLPRPRPRPKEHPRP | -0.202
50 | RRIRKRPPRLPRPRPRPVRGPRP | 0.732

Row | Sequence | shrunken log2 fold change
51 | RRIRTRPPRLPRPRPRPLLFPRP | -0.181
52 | RRIRRRPPRLPRPRPRPKRSPRP | 0.11
53 | RRIRMRPPRLPRPRPRPAHGPRP | 0.226
54 | RRIRHRPPRLPRPRPRPINFPRP | -0.368
55 | RRIRMRPPRLPRPRPRPKESPRP | 0.939
56 | RRIRNRPPRLPRPRPRPCINPRP | -0.548
57 | RRIRQRPPRLPRPRPRPMMLPRP | 0.052
58 | RRIRSRPPRLPRPRPRPGSHPRP | -0.104
59 | RRIRRRPPRLPRPRPRPDCVPRP | -0.0143
60 | RRIRIRPPRLPRPRPRPWQQPRP | 0.0529
61 | RRIRWRPPRLPRPRPRPERFPRP | -0.0212
62 | RRIRWRPPRLPRPRPRPCCNPRP | -0.0508
63 | RRIRIRPPRLPRPRPRPLLNPRP | -0.731
64 | RRIRNRPPRLPRPRPRPYTPPRP | -0.0563
65 | RRIRKRPPRLPRPRPRPLLHPRP | 0.108
66 | RRIRRRPPRLPRPRPRPWHNPRP | -0.279
67 | RRIRYRPPRLPRPRPRPPADPRP | 0.115
68 | RRIRDRPPRLPRPRPRPRGTPRP | -0.217
69 | RRIRWRPPRLPRPRPRPKAKPRP | 0.166
70 | RRIRHRPPRLPRPRPRPPDFPRP | 0.0633
71 | RRIRYRPPRLPRPRPRPVNIPRP | -0.617
72 | RRIRHRPPRLPRPRPRPHAAPRP | 0.292
73 | RRIRQRPPRLPRPRPRPGDHPRP | -0.0718
74 | RRIRPRPPRLPRPRPRPYKIPRP | -0.227
75 | RRIRDRPPRLPRPRPRPVRLPRP | 0.28

Row | Sequence | shrunken log2 fold change
76 | RRIRQRPPRLPRPRPRPRIDPRP | 0.0868
77 | RRIRPRPPRLPRPRPRPTKVPRP | -0.0777
78 | RRIRLRPPRLPRPRPRPQSRPRP | -0.377
79 | RRIRFRPPRLPRPRPRPHQRPRP | -0.183
80 | RRIRLRPPRLPRPRPRPEEDPRP | -0.00133
81 | RRIRPRPPRLPRPRPRPYHYPRP | -0.84
82 | RRIRFRPPRLPRPRPRPITDPRP | 0.0437
83 | RRIRIRPPRLPRPRPRPVRKPRP | -0.48
84 | RRIRHRPPRLPRPRPRPLVYPRP | -0.0877
85 | RRIRFRPPRLPRPRPRPSLRPRP | -0.262
86 | RRIRDRPPRLPRPRPRPINRPRP | -0.104
87 | RRIRTRPPRLPRPRPRPINAPRP | -0.175
88 | RRIRVRPPRLPRPRPRPLDQPRP | 0.0826
89 | RRIRNRPPRLPRPRPRPMRYPRP | -0.154
90 | RRIRFRPPRLPRPRPRPDWEPRP | -0.169
91 | RRIRERPPRLPRPRPRPDRQPRP | -0.0719
92 | RRIRNRPPRLPRPRPRPAERPRP | -0.117
93 | RRIRARPPRLPRPRPRPFAVPRP | 0.129
94 | RRIRKRPPRLPRPRPRPRINPRP | 0.0244
95 | RRIRPRPPRLPRPRPRPHWYPRP | -0.165
96 | RRIRVRPPRLPRPRPRPTHNPRP | 0.0759
97 | RRIRQRPPRLPRPRPRPERPPRP | 0.223
98 | RRIRVRPPRLPRPRPRPAQIPRP | -0.246
99 | RRIRVRPPRLPRPRPRPIDAPRP | -0.206
100 | RRIRCRPPRLPRPRPRPGHDPRP | -0.00827

Row | Sequence | shrunken log2 fold change
101 | RRIRQRPPRLPRPRPRPFYAPRP | -0.0278
102 | RRIRWRPPRLPRPRPRPPTMPRP | 0.264
103 | RRIRYRPPRLPRPRPRPYLQPRP | -1.9
104 | RRIRVRPPRLPRPRPRPAITPRP | -0.142
105 | RRIRRRPPRLPRPRPRPMHHPRP | 0.0725
106 | RRIRSRPPRLPRPRPRPEEIPRP | -0.00908
107 | RRIRRRPPRLPRPRPRPVPMPRP | 0.452
108 | RRIRMRPPRLPRPRPRPPYDPRP | 0.0745
109 | RRIRFRPPRLPRPRPRPDKSPRP | 0.053
110 | RRIRKRPPRLPRPRPRPYPYPRP | -0.125
111 | RRIRQRPPRLPRPRPRPSGMPRP | -0.143
112 | RRIRPRPPRLPRPRPRPGIAPRP | 0.218
113 | RRIRVRPPRLPRPRPRPVCEPRP | 0.206
114 | RRIRNRPPRLPRPRPRPDEFPRP | -0.0168
115 | RRIRDRPPRLPRPRPRPINDPRP | 0.0753
116 | RRIRRRPPRLPRPRPRPLVWPRP | 0.529
117 | RRIRVRPPRLPRPRPRPNCQPRP | -0.1
118 | RRIRERPPRLPRPRPRPTMNPRP | -0.19
119 | RRIRSRPPRLPRPRPRPGVSPRP | 0.119
120 | RRIRFRPPRLPRPRPRPYPTPRP | -0.324
121 | RRIRNRPPRLPRPRPRPKDKPRP | -0.112
122 | RRIRQRPPRLPRPRPRPHWQPRP | -0.147
123 | RRIRVRPPRLPRPRPRPYCFPRP | -0.736
124 | RRIRDRPPRLPRPRPRPDTNPRP | -0.0518
125 | RRIRERPPRLPRPRPRPFMMPRP | -0.584

Row | Sequence | shrunken log2 fold change
126 | RRIRTRPPRLPRPRPRPYYTPRP | -0.336
127 | RRIRSRPPRLPRPRPRPFRCPRP | -0.148
128 | RRIRSRPPRLPRPRPRPMFSPRP | -0.49
129 | RRIRGRPPRLPRPRPRPCLSPRP | 0.0424
130 | RRIRFRPPRLPRPRPRPQLEPRP | 0.118
131 | RRIRIRPPRLPRPRPRPYKPPRP | -0.0367
132 | RRIRSRPPRLPRPRPRPVMTPRP | -0.0963
133 | RRIRLRPPRLPRPRPRPNSLPRP | -0.101
134 | RRIRIRPPRLPRPRPRPVFGPRP | -0.0092
135 | RRIRRRPPRLPRPRPRPMHLPRP | 0.156
136 | RRIRTRPPRLPRPRPRPHSDPRP | -0.00801
137 | RRIRRRPPRLPRPRPRPEPKPRP | 1.46
138 | RRIRKRPPRLPRPRPRPLRGPRP | 0.873
139 | RRIRMRPPRLPRPRPRPQDCPRP | 0.0414
140 | RRIRTRPPRLPRPRPRPPRFPRP | 0.219
141 | RRIRQRPPRLPRPRPRPDKIPRP | -0.00225
142 | RRIRWRPPRLPRPRPRPTMCPRP | -0.00672
143 | RRIRNRPPRLPRPRPRPLGVPRP | 0.129
144 | RRIRRRPPRLPRPRPRPEKRPRP | 0.296
145 | RRIRKRPPRLPRPRPRPQTRPRP | 0.358
146 | RRIRSRPPRLPRPRPRPNHWPRP | -0.277
147 | RRIRFRPPRLPRPRPRPVTHPRP | -0.303
148 | RRIRGRPPRLPRPRPRPFNVPRP | -0.101
149 | RRIRTRPPRLPRPRPRPCNMPRP | -0.154
150 | RRIRWRPPRLPRPRPRPPYRPRP | 3.11
